From the supplement of paper PMC11316812
± gives the standard deviation of the averaged measurements.

Columns and labels:
[1] = tested on: MCF7; assay: percentage of EdU-negative (G0-arrested) nuclei per well, 72 h; higher = more G0 arrest; conditions: reference: sequence is the full UniProt precursor, the tested protein was the secreted form or ectodomain
[2] = tested on: hTERT-HMEC; assay: as above; conditions: reference: sequence is the full UniProt precursor, the tested protein was the secreted form or ectodomain
[3] = protein concentration 0.01051 µM
[4] = protein concentration 0.1051 µM
[5] = protein concentration 0.0325714 µM
[6] = protein concentration 0.325714 µM
[7] = protein concentration 0.0225 µM
[8] = protein concentration 0.0171429 µM
[9] = protein concentration 0.171429 µM
[10] = protein concentration 0.020715 µM
[11] = protein concentration 0.20715 µM
[12] = protein concentration 0.0115 µM
[13] = protein concentration 0.03125 µM
[14] = protein concentration 0.3125 µM
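Also: secreted proteins added to cultured cells, EdU pulse at the end, nuclei found by Hoechst imaging, EdU status from nuclear versus surrounding ring intensity ratio, PBS as neutral control.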

Sequence	percentage of EdU-negative [1, 7]	percentage of EdU-negative ([1]; protein concentration 0.225 µM)	percentage of EdU-negative [2, 7]	percentage of EdU-negative ([2]; protein concentration 0.225 µM)	further results
MLKKPLSAVTWLCIFIVAFVSHPAWLQKLSKHKTPAQPQLKAANCCEEVKELKAQVANLSSLLSELNKKQERDWVSVVMQVMELESNSKRMESRLTDAESKYSEMNNQIDIMQLQAAQTVTQTSADAIYDCSSLYQKNYRISGVYKLPPDDFLGSPELEVFCDMETSGGGWTIIQRRKSGLVSFYRDWKQYKQGFGSIRGDFWLGNEHIHRLSRQPTRLRVEMEDWEGNLRYAEYSHFVLGNELNSYRLFLGNYTGNVGNDALQYHNNTAFSTKDKDNDNCLDKCAQLRKGGYWYNCCTDSNLNGVYYRLGEHNKHLDGITWYGWHGSTYSLKRVEMKIRPEDFKP	–	–	–	–	percentage of EdU-negative [1, 3]: 24.6 ± 2.7%; percentage of EdU-negative [1, 4]: 25.2 ± 0.9%; percentage of EdU-negative [2, 3]: 4.85 ± 0.3%; percentage of EdU-negative [2, 4]: 5.52 ± 0.31%
MLKPSLPFTSLLFLQLPLLGVGLNTTILTPNGNEDTTADFFLTTMPTDSLSVSTLPLPEVQCFVFNVEYMNCTWNSSSEPQPTNLTLHYWYKNSDNDKVQKCSHYLFSEEITSGCQLQKKEIHLYQTFVVQLQDPREPRRQATQMLKLQNLVIPWAPENLTLHKLSESQLELNWNNRFLNHCLEHLVQYRTDWDHSWTEQSVDYRHKFSLPSVDGQKRYTFRVRSRFNPLCGSAQHWSEWSHPIHWGSNTSKENPFLFALEAVVISVGSMGLIISLLCVYFWLERTMPRIPTLKNLEDLVTEYHGNFSAWSGVSKGLAESLQPDYSERLCLVSEIPPKGGALGEGPGASPCNQHSPYWAPPCYTLKPET	–	–	–	–	percentage of EdU-negative [1, 5]: 24.7 ± 0.8%; percentage of EdU-negative [1, 6]: 26.37 ± 0.19%; percentage of EdU-negative [2, 5]: 5.08 ± 0.64%; percentage of EdU-negative [2, 6]: 5.6 ± 1.3%
MLLAWVQAFLVSNMLLAEAYGSGGCFWDNGHLYREDQTSPAPGLRCLNWLDAQSGLASAPVSGAGNHSYCRNPDEDPRGPWCYVSGEAGVPEKRPCEDLRCPETTSQALPAFTTEIQEASEGPGADEVQVFAPANALPARSEAAAVQPVIGISQRVRMNSKEKKDLGTLGYVLGITMMVIIIAIGAGIILGYSYKRGKDLKEQHDQKVCEREMQRITLPLSAFTNPTCEIVDEKTVVVHTSQTPVDPQEGTTPLMGQAGTPGA [Q96FE7]	24.9 ± 2%	25.1 ± 0.47%	4.79 ± 0.62%	5.22 ± 0.39%	–
MLLEPGRGCCALAILLAIVDIQSGGCINITSSASQEGTRLNLICTVWHKKEEAEGFVVFLCKDRSGDCSPETSLKQLRLKRDPGIDGVGEISSQLMFTISQVTPLHSGTYQCCARSQKSGIRLQGHFFSILFTETGNYTVTGLKQRQHLEFSHNEGTLSSGFLQEKVWVMLVTSLVALQAL	24.09 ± 0.069%	28.4 ± 2.2%	4.71 ± 0.094%	5.62 ± 0.37%	–
MLLFLLSALVLLTQPLGYLEAEMKTYSHRTMPSACTLVMCSSVESGLPGRDGRDGREGPRGEKGDPGLPGAAGQAGMPGQAGPVGPKGDNGSVGEPGPKGDTGPSGPPGPPGVPGPAGREGPLGKQGNIGPQGKPGPKGEAGPKGEVGAPGMQGSAGARGLAGPKGERGVPGERGVPGNTGAAGSAGAMGPQGSPGARGPPGLKGDKGIPGDKGAKGESGLPDVASLRQQVEALQGQVQHLQAAFSQYKKVELFPNGQSVGEKIFKTAGFVKPFTEAQLLCTQAGGQLASPRSAAENAALQQLVVAKNEAAFLSMTDSKTEGKFTYPTGESLVYSNWAPGEPNDDGGSEDCVEIFTNGKWNDRACGEKRLVVCEF	–	–	–	–	percentage of EdU-negative [1, 8]: 23.4 ± 1.8%; percentage of EdU-negative [1, 9]: 25.14 ± 0.067%; percentage of EdU-negative [2, 8]: 4.51 ± 0.51%; percentage of EdU-negative [2, 9]: 5.78 ± 0.29%
MLLKTVLLLGHVAQVLMLDNGLLQTPPMGWLAWERFRCNINCDEDPKNCISEQLFMEMADRMAQDGWRDMGYTYLNIDDCWIGGRDASGRLMPDPKRFPHGIPFLADYVHSLGLKLGIYADMGNFTCMGYPGTTLDKVVQDAQTFAEWKVDMLKLDGCFSTPEERAQGYPKMAAALNATGRPIAFSCSWPAYEGGLPPRVNYSLLADICNLWRNYDDIQDSWWSVLSILNWFVEHQDILQPVAGPGHWNDPDMLLIGNFGLSLEQSRAQMALWTVLAAPLLMSTDLRTISAQNMDILQNPLMIKINQDPLGIQGRRIHKEKSLIEVYMRPLSNKASALVFFSCRTDMPYRYHSSLGQLNFTGSVIYEAQDVYSGDIISGLRDETNFTVIINPSGVVMWYLYPIKNLEMSQQ	–	–	–	–	percentage of EdU-negative [1, 10]: 27.8 ± 0.95%; percentage of EdU-negative [1, 11]: 26.5 ± 1.4%; percentage of EdU-negative [2, 10]: 5.62 ± 0.13%; percentage of EdU-negative [2, 11]: 6.091 ± 0.044%
MLLLFLLFEGLCCPGENTAAPQALQSYHLAAEEQLSFRMLQTSSFANHSWAHSEGSGWLGDLQTHGWDTVLGTIRFLKPWSHGNFSKQELKNLQSLFQLYFHSFIQIVQASAGQFQLEYPFEIQILAGCRMNAPQIFLNMAYQGSDFLSFQGISWEPSPGAGIRAQNICKVLNRYLDIKEILQSLLGHTCPRFLAGLMEAGESELKRKVKPEAWLSCGPSPGPGRLQLVCHVSGFYPKPVWVMWMRGEQEQRGTQRGDVLPNADETWYLRATLDVAAGEAAGLSCRVKHSSLGGHDLIIHWGGYSIFLILICLTVIVTLVILVVVDSRLKKQSSNKNILSPHTPSPVFLMGANTQDTKNSRHQFCLAQVSWIKNRVLKKWKTRLNQLW	–	–	–	–	percentage of EdU-negative [1, 12]: 28.7 ± 2.1%; percentage of EdU-negative ([1]; protein concentration 0.115 µM): 26 ± 1.3%; percentage of EdU-negative [2, 12]: 4.889 ± 0.0055%; percentage of EdU-negative ([2]; protein concentration 0.115 µM): 8.22 ± 0.88%
MLLLFSVILISWVSTVGGEGTLCDFPKIHHGFLYDEEDYNPFSQVPTGEVFYYSCEYNFVSPSKSFWTRITCTEEGWSPTPKCLRMCSFPFVKNGHSESSGLIHLEGDTVQIICNTGYSLQNNEKNISCVERGWSTPPICSFTKGECHVPILEANVDAQPKKESYKVGDVLKFSCRKNLIRVGSDSVQCYQFGWSPNFPTCKGQVRSCGPPPQLSNGEVKEIRKEEYGHNEVVEYDCNPNFIINGPKKIQCVDGEWTTLPTCVEQVKTCGYIPELEYGYVQPSVPPYQHGVSVEVNCRNEYAMIGNNMITCINGIWTELPMCVATHQLKRCKIAGVNIKTLLKLSGKEFNHNSRIRYRCSDIFRYRHSVCINGKWNPEVDCTEKREQFCPPPPQIPNAQNMTTTVNYQDGEKVAVLCKENYLLPEAKEIVCKDGRWQSLPRCVESTAYCGPPPSINNGDTTSFPLSVYPPGSTVTYRCQSFYKLQGSVTVTCRNKQWSEPPRCLDPCVVSEENMNKNNIQLKWRNDGKLYAKTGDAVEFQCKFPHKAMISSPPFRAICQEGKFEYPICE [Q9BXR6]	–	–	–	–	percentage of EdU-negative ([1]; protein concentration 0.024 µM): 25.7 ± 0.37%; percentage of EdU-negative ([1]; protein concentration 0.24 µM): 30.6 ± 1.7%; percentage of EdU-negative ([2]; protein concentration 0.024 µM): 4.32 ± 0.27%; percentage of EdU-negative ([2]; protein concentration 0.24 µM): 5.71 ± 1.3%
MLLLGAVLLLLALPGHDQETTTQGPGVLLPLPKGACTGWMAGIPGHPGHNGAPGRDGRDGTPGEKGEKGDPGLIGPKGDIGETGVPGAEGPRGFPGIQGRKGEPGEGAYVYRSAFSVGLETYVTIPNMPIRFTKIFYNQQNHYDGSTGKFHCNIPGLYYFAYHITVYMKDVKVSLFKKDKAMLFTYDQYQENNVDQASGSVLLHLEVGDQVWLQVYGEGERNGLYADNDNDSTFTGFLLYHDTN	–	–	–	–	percentage of EdU-negative [1, 13]: 26.2 ± 2.3%; percentage of EdU-negative [1, 14]: 25.6 ± 1.1%; percentage of EdU-negative [2, 13]: 5.07 ± 0.4%; percentage of EdU-negative [2, 14]: 5.02 ± 0.22%
MLLLINVILTLWVSCANGQEVKPCDFPEIQHGGLYYKSLRRLYFPAAAGQSYSYYCDQNFVTPSGSYWDYIHCTQDGWSPTVPCLRTCSKSDVEIENGFISESSSIYILNEETQYNCKPGYATAEGNSSGSITCLQNGWSTQPICIKFCDMPVFENSRAKSNGMWFKLHDTLDYECYDGYESSYGNTTDSIVCGEDGWSHLPTCYNSSENCGPPPPISNGDTTSFPQKVYLPWSRVEYQCQSYYELQGSKYVTCSNGDWSEPPRCISMKPCEFPEIQHGHLYYENTRRPYFPVATGQSYSYYCDQNFVTPSGSYWDYIHCTQDGWLPTVPCLRTCSKSDIEIENGFISESSSIYILNKEIQYKCKPGYATADGNSSGSITCLQNGWSAQPICIKFCDMPVFENSRAKSNGMRFKLHDTLDYECYDGYEISYGNTTGSIVCGEDGWSHFPTCYNSSEKCGPPPPISNGDTTSFLLKVYVPQSRVEYQCQSYYELQGSNYVTCSNGEWSEPPRCIHPCIITEENMNKNNIQLKGKSDIKYYAKTGDTIEFMCKLGYNANTSVLSFQAVCREGIVEYPRCE	24.7 ± 2.6%	28.7 ± 0.4%	4.84 ± 0.38%	4.68 ± 0.36%	–
MLLLINVILTLWVSCANGQVKPCDFPDIKHGGLFHENMRRPYFPVAVGKYYSYYCDEHFETPSGSYWDYIHCTQNGWSPAVPCLRKCYFPYLENGYNQNYGRKFVQGNSTEVACHPGYGLPKAQTTVTCTEKGWSPTPRCIRVRTCSKSDIEIENGFISESSSIYILNKEIQYKCKPGYATADGNSSGSITCLQNGWSAQPICINSSEKCGPPPPISNGDTTSFLLKVYVPQSRVEYQCQPYYELQGSNYVTCSNGEWSEPPRCIHPCIITEENMNKNNIKLKGRSDRKYYAKTGDTIEFMCKLGYNANTSILSFQAVCREGIVEYPRCE	28 ± 0.75%	29.4 ± 0.63%	5.2 ± 0.45%	5.74 ± 0.65%	–
MLLLLLPLLWGRERAEGQTSKLLTMQSSVTVQEGLCVHVPCSFSYPSHGWIYPGPVVHGYWFREGANTDQDAPVATNNPARAVWEETRDRFHLLGDPHTKNCTLSIRDARRSDAGRYFFRMEKGSIKWNYKHHRLSVNVTALTHRPNILIPGTLESGCPQNLTCSVPWACEQGTPPMISWIGTSVSPLDPSTTRSSVLTLIPQPQDHGTSLTCQVTFPGASVTTNKTVHLNVSYPPQNLTMTVFQGDGTVSTVLGNGSSLSLPEGQSLRLVCAVDAVDSNPPARLSLSWRGLTLCPSQPSNPGVLELPWVHLRDAAEFTCRAQNPLGSQQVYLNVSLQSKATSGVTQGVVGGAGATALVFLSFCVIFVVVRSCRKKSARPAAGVGDTGIEDANAVRGSASQGPLTEPWAEDSPPDQPPPASARSSVGEGELQYASLSFQMVKPWDSRGQEATDTEYSEIKIHR [Q9Y336]	26.3 ± 0.23%	30.4 ± 0.4%	5.01 ± 0.61%	4.21 ± 0.26%	–
MLLLLTLALLGGPTWAGKMYGPGGGKYFSTTEDYDHEITGLRVSVGLLLVKSVQVKLGDSWDVKLGALGGNTQEVTLQPGEYITKVFVAFQAFLRGMVMYTSKDRYFYFGKLDGQISSAYPSQEGQVLVGIYGQYQLLGIKSIGFEWNYPLEEPTTEPPVNLTYSANSPVGR [Q96DA0]	25.49 ± 0.17%	24.3 ± 2.2%	5.62 ± 0.12%	9.31 ± 0.28%	–
MLLLPFQLLAVLFPGGNSEHAFQGPTSFHVIQTSSFTNSTWAQTQGSGWLDDLQIHGWDSDSGTAIFLKPWSKGNFSDKEVAELEEIFRVYIFGFAREVQDFAGDFQMKYPFEIQGIAGCELHSGGAIVSFLRGALGGLDFLSVKNASCVPSPEGGSRAQKFCALIIQYQGIMETVRILLYETCPRYLLGVLNAGKADLQRQVKPEAWLSSGPSPGPGRLQLVCHVSGFYPKPVWVMWMRGEQEQQGTQLGDILPNANWTWYLRATLDVADGEAAGLSCRVKHSSLEGQDIILYWRNPTSIGSIVLAIIVPSLLLLLCLALWYMRRRSYQNIP	25.9 ± 0.97%	24.2 ± 1.6%	5.01 ± 0.84%	6.06 ± 0.84%	–
